Test results taken from patent publication US20100137221A1, “PEPTIDES THAT INTERACT WITH TOPOISOMERASE I AND METHODS THEREOF” (UNIVERSITY UTAH RESEARCH FOUNDATION, priority 2007, published 2010).

What was measured:
[1] = biological target: T1, human topoisomerase I (human, UniProt P11387 1-765, limits assumed); test: SPR (BIAcore), T1BP2 on the chip, top1 as analyte, Langmuir model [cont'd) B]
T1 construct: also called top1; top 1
T1 sequence (looked up): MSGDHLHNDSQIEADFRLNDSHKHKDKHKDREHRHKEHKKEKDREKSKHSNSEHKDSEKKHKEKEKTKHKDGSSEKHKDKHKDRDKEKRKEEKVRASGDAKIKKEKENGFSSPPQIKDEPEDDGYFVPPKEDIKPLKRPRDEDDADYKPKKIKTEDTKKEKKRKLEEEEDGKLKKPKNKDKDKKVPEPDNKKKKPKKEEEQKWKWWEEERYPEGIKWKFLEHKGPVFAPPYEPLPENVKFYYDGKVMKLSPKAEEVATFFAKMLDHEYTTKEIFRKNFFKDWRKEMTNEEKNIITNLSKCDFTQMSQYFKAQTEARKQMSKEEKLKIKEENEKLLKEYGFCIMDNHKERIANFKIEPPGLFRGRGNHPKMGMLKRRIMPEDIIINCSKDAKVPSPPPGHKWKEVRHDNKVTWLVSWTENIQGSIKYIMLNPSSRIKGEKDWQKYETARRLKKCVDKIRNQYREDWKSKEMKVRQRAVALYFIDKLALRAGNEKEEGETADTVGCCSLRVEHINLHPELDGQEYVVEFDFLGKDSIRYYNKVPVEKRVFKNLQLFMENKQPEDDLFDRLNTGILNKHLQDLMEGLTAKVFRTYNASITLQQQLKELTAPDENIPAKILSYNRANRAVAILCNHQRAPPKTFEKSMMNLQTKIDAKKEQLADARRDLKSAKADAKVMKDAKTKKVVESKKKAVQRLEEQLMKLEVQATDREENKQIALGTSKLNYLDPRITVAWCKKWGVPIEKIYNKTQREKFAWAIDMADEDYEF
Method: These top1 experiments were evaluated with BIAevaluation Software 3.1 using Langmuir Kinetics to model the interaction. The accuracy of the fit to the model is illustrated by dashed lines representing actual data and narrow lines representing the fitted curves.
(§1) Binding analysis: The binding analysis of the peptides was performed on a BIAcore 2000 instrument. A four channel CM5 sensor chip was derivatized with three top1 binding peptides (T1BPs 1, 2 and 4) and a control surface left blank. Catalytically active top1 was used as the mobile or analyte phase and diluted in 150 mM NaCl, 30 mM HEPES, 0.05% P20 and injected at various concentrations (8.0, 4.0, 2.0, 1.0 and 0.4 nM) through the instrument's microfluidics sample handling system at a flow rate of 30 μl/minute. With each injection of a particular concentration of top1, association and dissociation data for three peptides were generated. Binding constants were determined using the BIAevaluation 2.1 software.

[2] = biological target: T1, human topoisomerase I; test: SPR (BIAcore 2000), T1BP2 on CM5 chip, top1 as analyte, Langmuir model
Method: as §1
T1BP2 affinity for top1: T1BP2 had remarkable affinity for top1 when assayed by surface plasmon resonance (FIG. 2a).

[3] = biological target: T2, T1BP2
T2 chain: SAYAATVRGPLSSAS

[4] = biological target: T1, human topoisomerase I; test: SPR (BIAcore), 100 kDa top1 applied at 1, 2.5, 5, 10 and 20 nM to the CPP1 flow cell, global fit [left panel]
Method: Top 1 was applied to flow cells in 1, 2.5, 5, 10 and 20 nM concentrations. The overlaying curves represent the actual data for a given concentration of top 1 and the “fit” curves. Data were fit using the BIAeval 3000 global fitting software.

[5] = biological target: T1, human topoisomerase I; test: fluorescence polarization, human placental 91 kDa top1 titrated into 500 nM fluorescein-labeled T1BP1; the concentration is that of top1

B1: T1BP2 (peptide)
peptide: SAYAATVRGPLSSAS
notes: Coupled to a CM5 chip for SPR; also called T1PB2; CPP3
- Ka [1]: 1.5e+06 M⁻¹
- kd (s-1) (observed) at [Top1] 0.4 nM [1]: 0.0028 s⁻¹
- kd (s-1) (observed) at [Top1] 1.0 nM [1]: 0.0028 s⁻¹
- kd (s-1) (observed) at [Top1] 2.0 nM [1]: 0.00281 s⁻¹
- kd (s-1) (observed) at [Top1] 4.0 nM [1]: 0.00282 s⁻¹
- kd (s-1) (observed) at [Top1] 8.0 nM [1]: 0.00283 s⁻¹
- koff [1]: 0.0028 s⁻¹
- kon [1]: 4210 M⁻¹ s⁻¹
- Kd [2]: 665 nM

B2: human topoisomerase I (protein)
chain: MSGDHLHNDSQIEADFRLNDSHKHKDKHKDREHRHKEHKKEKDREKSKHSNSEHKDSEKKHKEKEKTKHKDGSSEKHKDKHKDRDKEKRKEEKVRASGDAKIKKEKENGFSSPPQIKDEPEDDGYFVPPKEDIKPLKRPRDEDDADYKPKKIKTEDTKKEKKRKLEEEEDGKLKKPKNKDKDKKVPEPDNKKKKPKKEEEQKWKWWEEERYPEGIKWKFLEHKGPVFAPPYEPLPENVKFYYDGKVMKLSPKAEEVATFFAKMLDHEYTTKEIFRKNFFKDWRKEMTNEEKNIITNLSKCDFTQMSQYFKAQTEARKQMSKEEKLKIKEENEKLLKEYGFCIMDNHKERIANFKIEPPGLFRGRGNHPKMGMLKRRIMPEDIIINCSKDAKVPSPPPGHKWKEVRHDNKVTWLVSWTENIQGSIKYIMLNPSSRIKGEKDWQKYETARRLKKCVDKIRNQYREDWKSKEMKVRQRAVALYFIDKLALRAGNEKEEGETADTVGCCSLRVEHINLHPELDGQEYVVEFDFLGKDSIRYYNKVPVEKRVFKNLQLFMENKQPEDDLFDRLNTGILNKHLQDLMEGLTAKVFRTYNASITLQQQLKELTAPDENIPAKILSYNRANRAVAILCNHQRAPPKTFEKSMMNLQTKIDAKKEQLADARRDLKSAKADAKVMKDAKTKKVVESKKKAVQRLEEQLMKLEVQATDREENKQIALGTSKLNYLDPRITVAWCKKWGVPIEKIYNKTQREKFAWAIDMADEDYEF
- cleavage complex formation (top1-DNA-9AC cleavage assay) [3]: T1BP2 increased cleavage complex formation approximately 50%

B3: CPP1 (peptide)
peptide: LAVRRYALGNGYDWS
- binding result [4]: binds

B4: T1BP1 (peptide)
peptide: SSQVVGVPQLMQSSP
notes: also called CPP2
- EC50 (read off the curve) [5]: ~100 nM
